Here are results for two molecules from patent US20090118194A1, “Measurement of melanocortin peptides and uses thereof” (Auckland UniServices Limited, priority 2002, published 2009).

“Also recorded” adds a separate entry of the source.

The assay relates to primary rat osteoblasts. Briefly: Primary rat osteoblast proliferation assay ([3H]thymidine incorporation, cell number). The assay is classed as cell-based. An excerpt: Primary rat osteoblasts were isolated from 20 day fetal rat calvariae. (The use of animals for these studies was approved by the Auckland Animal Ethics Committee.) Calvariae were excised and the frontal and parietal bones, free of suture and periosteal tissue, were collected and sequentially digested using collagenase as previously described (Cornish J, Callon K E, Lin C Q X, Xiao C L, Mulvey T B, Cooper G J S, Reid I R Trifluoroacetate, a contaminant in puritied proteins, inhibits proliferation of osteoblasts and chondrocytes. Amer J Physiol Endocrinol Metab 277: E779-E783, 1999). Primary rat osteoblasts were grown in DMEM supplemented with 10% FCS, 50 U/ml penicillin and 50 μg/ml streptomycin. After 48 hour, the medium was changed to MEM. Confluence was reached within 5-6 days, at which time the cells were subcultured into 10 cm culture plates for RNA preparation or 24 well plates for proliferation assays.
Primary rat osteoblasts were subcultured into 24 well plates at a density of 5×10^4 cells/ml/well in MEM, 5% FCS for 24 hours. Cells were growth arrested in MEM, 0.1% bovine serum albumin (BSA) for 24 hour and then fresh media and experimental compounds were added for a further 24 hours. Cells were pulsed with [^3H]thymidine (0.5 μCi/well) 2 hours before the end of the experimental incubation. The experiment was terminated and both cell numbers and thymidine incorporation were assessed. Cell numbers were analysed by detaching cells from the wells by exposure to trypsin/EDTA (0.05%/0.53 mM) for approximately 5 minutes at 37° C. Counting was performed in a hemocytometer chamber. Results are expressed per well. [^3H]Thymidine incorporation was analysed by washing the cells in MEM followed by the addition of 10% trichloroacetic acid. The precipitate was washed twice with ethnol:ether (3:1) and the wells desiccated at room temperature. The residue was dissolved in 2M KOH at 55° C. for 30 minutes, neutralized with 1M HCl, and an aliquot counted for radioactivity. Results are expressed as dpm per well. Each experiment was performed at least three times using experimental groups consisting of at least six wells.
Data are presented as mean±SEM. The significance of differences between groups was determined using Student's t tests for unpaired data and a 5% significance level. The comparisons to be made in each experiment were specified a priori, so no adjustment for multiple comparisons was necessary. Where several experiments have been shown in one figure, the data are expressed as the ratio of results in treatment groups to those in the control group and the ‘P’ values shown were calculated using the data from the individual experiments, before the data were pooled.
In general terms: Dividing cells build labelled thymidine or BrdU into new DNA.

As to “ACTH1-24: melanocortin peptide purchased from Bachem California (SYSMEHFRWGKPVGKKRRPVKVYP; Corticotropin; UniProt P01189 138-161, looked up, fragment)”, where the note is “10^−7 M against α-MSH 10^−8 M and 10^−7 M, growth arrested primary rat osteoblasts”, the “antagonism of α-MSH stimulated [3H] thymidine uptake” value was “inhibited two doses of α-MSH (10^−8 M and 10^−7 M) from stimulating [^3H] thymidine uptake; also recorded: antagonise α-MSH stimulated stimulation of thymidine incorporation”. Where the note is “growth arrested primary rat osteoblasts, 10^−7 M, alone”, the “thymidine incorporation or cell numbers (proliferation)” value is recorded as “did not stimulate thymidine incorporation or cells numbers; also recorded: no significant effect on osteoblast proliferation”.

B1: agouti protein: recombinant mouse agouti protein, antagonist of melanocortin peptides coupling MC1-R, MC2-R, and MC4-R (protein, UniProt Q03288 23-131, looked up)
Agouti-signaling protein: HLALEETLGDDRSLRSNSSMNSLDFSSVSIVALNKKSKKISRKEAEKRKRSSKKKASMKKVARPPPPSPCVATRDSCKPPAPACCDPCASCQCRFFGSACTCRVLNPNC
Take B1: the “antagonism of α-MSH stimulated osteoblast proliferation” value (agouti protein 10^−9 M-10^−7 M, primary rat osteoblasts) is “did not antagonise α-MSH stimulated osteoblast proliferation”. Further, the thymidine incorporation entry (growth arrested primary rat osteoblasts, 10^−9-10^−7 M, alone) is given as “significantly stimulated thymidine incorporation”. The “additivity with α-MSH stimulated thymidine incorporation” value (primary rat osteoblasts) is listed as “not additive”.
